Columns and labels:
[1] = biological target: fluorescein-labeled ALK peptide G1473…1483; experiment: fluorescence polarisation; fluorescein-labeled peptides and GST-PTBi in solution
[2] = biological target: fluorescein-labeled ALK peptide F1577…1587; experiment: as above

GST-fused NUMB PTB domain with the exon 3 insert (11 aa) (domain or fragment)
Kd [1]: 700 nM | Kd [2]: 500 nM
